Where a chain is given by its changes, count along the chain named. Values joined by “and” are separate entries in the source; they are usually repeats but may differ in a detail not shown here. Identical values can stand only once.
B1: anti-CCR8 mAb 1-10 (antibody, V domains shown)
VH: EVQLQQSGPELVKPGASVKISCKTSGYTFTEYTIHWVKQSHGESLEWVGGINPNNGNTRYDQKFKGKATLTIDKSSSPAYMELRSLTSEDSAVYYCARVARSSGSGPYAMDYWGQGTSVTVSS
VL: DVVMTQTPLSLPVSLGDQASISCRCTQSLLHTNGDTYLHWYLQKPGQSPKLLIYKVSNRFSGVPDRFSGSGSGTDFTLKISRVEAEDLGVYFCSQSTHVPYTFGGGTKLEIK
notes: Murine hybridoma mAb
B2: anti-CCR8 mAb 1-11 (antibody, V domains shown)
VH: QVQLQQPGAELVKPGASVKMSCKATGYTFTGYNMHWVKQTPGQGLEWIGAISPGKGDTSYNLKFKGKATLTTDKSSSTAYMQLSSLTSADSAVYYCARSGGTPFAYWGQGTLVTVSA
VL: B1 VL with C25S, T26S, L30V, T32S, H39Y, S81N
notes: Murine hybridoma mAb
B3: anti-CCR8 mAb 1-16 (antibody, V domains shown)
VH: EVQLQQSGPELVKPGASVKISCKASVYSFTGSYMHWVKQSHVKSLEWIGRINPYNGATSYNQNFKDKASLTVDKSSSTAYMELHSLTSEDSAVYYCATTLLRLLDYWGQGTTLTVSS
VL: DIVMTQAAFSNPVTLGTSASISCRSSKSLLHSNGITYLYWYLQKPGQSPQLLIYQMSNLASGVPDRFSSSGSGTDFTLRISRVEAEDVGVYYCAQNLELPWTFGGGTKLEIK
notes: Murine hybridoma mAb
B4: anti-CCR8 mAb 1-17 (antibody, V domains shown)
VH: QVQLQQPGSELVRPGASVKLSCKASGYTFTSYWMHWVKQRPGQGLEWIGNIWPGSASTNYDEKFKNKATLTVDTSSSTAYMQLSSLTSEDSAVYYCIRGGKGAMDYWSQGTSVTVSS
VL: DVVMTQIPLSLPVSLGDQASISCRSSQSLENSYGNTYLNWYLQKPGQSPQLLIYRVSNRFSGVLDRFSGSGSGTDFTLKISRVEAEDLGVYFCLQVTHVPPTFGAGTKLELK
notes: Murine hybridoma mAb
B5: anti-CCR8 mAb 1-33 (antibody, human IgG1, kappa)
heavy: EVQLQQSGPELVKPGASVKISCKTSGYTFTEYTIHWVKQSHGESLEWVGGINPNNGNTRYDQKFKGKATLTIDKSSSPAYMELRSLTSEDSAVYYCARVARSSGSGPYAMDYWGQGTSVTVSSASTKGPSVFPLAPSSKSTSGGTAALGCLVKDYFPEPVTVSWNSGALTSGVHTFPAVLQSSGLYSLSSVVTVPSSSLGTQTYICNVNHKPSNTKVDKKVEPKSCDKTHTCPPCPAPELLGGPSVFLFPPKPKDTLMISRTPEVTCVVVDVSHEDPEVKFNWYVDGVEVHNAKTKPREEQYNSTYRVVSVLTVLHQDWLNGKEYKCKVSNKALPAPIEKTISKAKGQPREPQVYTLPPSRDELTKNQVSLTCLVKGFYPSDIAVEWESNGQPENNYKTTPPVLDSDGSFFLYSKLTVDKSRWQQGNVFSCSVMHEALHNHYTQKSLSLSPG
light: DVVMTQTPLSLPVSLGDQASISCRCTQSLLHTNGDTYLHWYLQKPGQSPKLLIYKVSNRFSGVPDRFSGSGSGTDFTLKISRVEAEDLGVYFCSQSTHVPYTFGGGTKLEIKRTVAAPSVFIFPPSDEQLKSGTASVVCLLNNFYPREAKVQWKVDNALQSGNSQESVTEQDSKDSTYSLSSTLTLSKADYEKHKVYACEVTHQGLSSPVTKSFNRGEC
B6: anti-CCR8 mAb 1-35 (antibody, human IgG1, kappa)
heavy: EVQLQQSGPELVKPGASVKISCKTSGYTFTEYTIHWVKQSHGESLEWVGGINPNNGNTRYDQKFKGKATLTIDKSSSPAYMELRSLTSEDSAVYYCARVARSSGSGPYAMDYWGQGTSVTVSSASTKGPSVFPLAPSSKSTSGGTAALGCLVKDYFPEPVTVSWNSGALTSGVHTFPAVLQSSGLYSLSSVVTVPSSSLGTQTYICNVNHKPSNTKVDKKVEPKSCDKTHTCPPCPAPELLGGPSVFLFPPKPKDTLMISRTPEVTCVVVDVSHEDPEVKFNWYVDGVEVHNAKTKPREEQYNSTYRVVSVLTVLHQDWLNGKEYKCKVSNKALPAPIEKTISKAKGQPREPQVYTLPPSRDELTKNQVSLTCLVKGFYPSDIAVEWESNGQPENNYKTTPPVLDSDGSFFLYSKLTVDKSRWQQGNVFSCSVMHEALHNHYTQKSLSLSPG
light: B5 light
modifications: hypofucosylated (low fucosylated) Fc glycan
B7: anti-CCR8 mAb 1-45 (antibody, human IgG1, kappa)
heavy: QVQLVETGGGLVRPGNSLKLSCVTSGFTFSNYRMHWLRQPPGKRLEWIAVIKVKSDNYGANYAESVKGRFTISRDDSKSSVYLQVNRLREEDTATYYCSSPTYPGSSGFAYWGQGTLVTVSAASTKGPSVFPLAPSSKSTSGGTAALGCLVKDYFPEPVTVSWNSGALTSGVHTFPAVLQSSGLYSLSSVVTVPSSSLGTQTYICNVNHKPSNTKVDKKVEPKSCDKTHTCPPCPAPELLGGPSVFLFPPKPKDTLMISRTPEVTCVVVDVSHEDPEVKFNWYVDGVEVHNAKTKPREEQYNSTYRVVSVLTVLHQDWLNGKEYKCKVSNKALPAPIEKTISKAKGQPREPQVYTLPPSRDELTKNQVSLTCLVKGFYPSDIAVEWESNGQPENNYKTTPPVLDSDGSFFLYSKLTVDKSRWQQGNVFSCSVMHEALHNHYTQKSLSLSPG
light: DIQMTQTTSSLSASLGDRVTISCRASQDISNYLNWYQQKPDGTVKLLIYYTSRLHSGVPSRFSGSGSGTDYSLTISNLEQEDIATYFCQQGNKFPPTFGGGTKLEINRTVAAPSVFIFPPSDEQLKSGTASVVCLLNNFYPREAKVQWKVDNALQSGNSQESVTEQDSKDSTYSLSSTLTLSKADYEKHKVYACEVTHQGLSSPVTKSFNRGEC
B8: anti-CCR8 mAb 1-48 (antibody, human IgG1, kappa)
heavy: QVQLVETGGGLVRPGNSLKLSCVTSGFTFSNYRMHWLRQPPGKRLEWIAVIKVKSDNYGANYAESVKGRFTISRDDSKSSVYLQVNRLREEDTATYYCSSPTYPGSSGFAYWGQGTLVTVSAASTKGPSVFPLAPSSKSTSGGTAALGCLVKDYFPEPVTVSWNSGALTSGVHTFPAVLQSSGLYSLSSVVTVPSSSLGTQTYICNVNHKPSNTKVDKKVEPKSCDKTHTCPPCPAPELLGGPDVFLFPPKPKDTLMISRTPEVTCVVVDVSHEDPEVKFNWYVDGVEVHNAKTKPREEQYNSTYRVVSVLTVLHQDWLNGKEYKCKVSNKALPLPEEKTISKAKGQPREPQVYTLPPSRDELTKNQVSLTCLVKGFYPSDIAVEWESNGQPENNYKTTPPVLDSDGSFFLYSKLTVDKSRWQQGNVFSCSVMHEALHNHYTQKSLSLSPG
light: B7 light

target: T1, human CCR8 (human, UniProt P51685 1-355); assay: cell-based or functional assay

| Binder | IC50 of CCL1-induced hCCR8 Gi2 signaling (BRET, HEK-293) |
| --- | --- |
| B1 | 0.046 µg/mL and 0.306 nM |
| B2 | 0.129 µg/mL and 0.86 nM |
| B3 | 0.092 µg/mL and 0.616 nM |
| B4 | 0.026 µg/mL and 0.172 nM |

target: T1, human CCR8; assay: cell-based or functional assay; remark: another data set of the same source

| Binder | residual hCCL1 (100 nM) Gi2 response, protocol #2, mAb 0.08 µg/mL [%] | residual hCCL1 (100 nM) Gi2 response, protocol #2, mAb 0.4 µg/mL [%] | residual hCCL1 (100 nM) Gi2 response, protocol #2, mAb 10 µg/mL [%] | residual hCCL1 (100 nM) Gi2 response, protocol #3, mAb 0.05 µg/mL [%] | residual hCCL1 (100 nM) Gi2 response, protocol #3, mAb 0.5 µg/mL [%] | residual hCCL1 (100 nM) Gi2 response, protocol #3, mAb 5 µg/mL [%] |
| --- | --- | --- | --- | --- | --- | --- |
| B1 | 104 | 46 | 28 | 80 | 57 | 45 |
| B2 | – | – | – | 102 | 98 | 84 |
| B3 | 97 | 96 | 84 | 96 | 81 | 73 |
| B4 | 99 | 83 | 56 | 116 | 90 | 45 |

target: T1, human CCR8; assay: cell-based or functional assay; remark: another data set of the same source

| Binder | extrapolated top plateau of hCCL1 curve with 5 µg/mL mAb, protocol #3 |
| --- | --- |
| B1 | 855 % of hCCL1 (100 nM) |
| B2 | 2880 % of hCCL1 (100 nM) |
| B3 | 292 % of hCCL1 (100 nM) |
| B4 | 193000 % of hCCL1 (100 nM) |

target: T1, human CCR8; assay: cell-based or functional assay; remark: another data set of the same source

| Binder | IC50 of CCL1-induced hCCR8 Gi2 signaling (BRET), pH 6.5 | IC50 of CCL1-induced hCCR8 Gi2 signaling (BRET), pH 7.4 |
| --- | --- | --- |
| B3 | 0.162 µg/ml and 1.08 nM | 0.152 µg/ml and 1.01 nM |

target: T1, human CCR8; assay: cell-based or functional assay; remark: another data set of the same source

| Binder | ADCC % max lysis, HUT78 targets, NK donor 3 [%] | ADCC % max lysis, HUT78 targets, NK donor 4 [%] | ADCC EC50, HUT78 targets, NK donor 3 [nM] | ADCC EC50, HUT78 targets, NK donor 4 [nM] |
| --- | --- | --- | --- | --- |
| B5 | 14 | 15 | 0.793 | 1.52 |
| B6 | 29 | 29 | 0.195 | 0.282 |
| B7 | 16 | 18 | 0.291 | 0.406 |
| B8 | 25 | 30 | 0.00822 | 0.0489 |

target: T2, pm3 (Y17 sulfated; Y15 and Y16 not sulfated); assay: ELISA on coated peptide [cont.]
T2 construct: also called sulfated CCR8 N-terminal peptide pm3
T2 sequence (peptide, as listed by the source): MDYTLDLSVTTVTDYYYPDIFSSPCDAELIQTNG
Description: (§1) The specific binding properties of antibodies were evaluated by ELISA with coated CCR8 related peptides (500 ng/ml) in carbonate/bicarbonate buffer. Different peptides were used as described in Table 1 (see Example 1). Each anti-CCR8 mAb was tested at 1 μg/mL then diluted at 1/10. After an incubation at room temperature during 90 min, unbound mAbs were removed by washings. […] After washings, 3,3′,5,5′-tetramethylbenzidine (TMB) (Interchim, Montluçon, France) was added for 15 min. Then the optical density (OD) was determined by using a multiplate reader (Tecan, Lyon, France) and correlated with mAb reactivity on the panel of coated peptides.

| Binder | binding result |
| --- | --- |
| B1 | binds |
| B2 | binds |

target: T3, pm5 (Y15 and Y17 sulfated; Y16 not sulfated); assay: ELISA on coated peptide [cont.]
T3 construct: also called sulfated CCR8 N-terminal peptide pm5
T3 sequence (peptide, as listed by the source): as above
Description: as §1

| Binder | binding result |
| --- | --- |
| B1 | binds |
| B2 | binds |

target: T4, pm6 (Y16 and Y17 sulfated; Y15 not sulfated); assay: ELISA on coated peptide [cont.]
T4 construct: also called sulfated CCR8 N-terminal peptide pm6
T4 sequence (peptide, as listed by the source): as above
Description: as §1

| Binder | binding result |
| --- | --- |
| B1 | binds |
| B2 | binds |

target: T5, pm8 (Y15, Y16 and Y17 sulfated); assay: ELISA on coated peptide [cont.]
T5 construct: also called sulfated CCR8 N-terminal peptide pm8
T5 sequence (peptide, as listed by the source): as above
Description: as §1

| Binder | binding result |
| --- | --- |
| B1 | binds |
| B2 | binds |

target: T1, human CCR8; assay: flow cytometry, hCCR8-transfected CHO-K1 cells
Description: Briefly, 1.10⁵ cells per well in a 96 well plate were incubated with a dilution of unconjugated anti-CCR8 mAb at 10 μg/mL then diluted at 1/3.33, 4 dilution points (during 30 min at 4° C.). In human activated T cells model, prior to mAb incubation, cells were first incubated with 200 nM of hCCL1 (R&D Systems, Minneapolis, MN, USA) or buffer PBS (Invitrogen by Thermofisher Scientific, Illkirch-Graffenstaden, France) supplemented by 2% Fetal Bovine Serum (Invitrogen by Thermofisher Scientific, Illkirch-Graffenstaden, France) and 2 mM EDTA (Invitrogen by Thermofisher Scientific, Illkirch-Graffenstaden, France) during 1 hour at 4° C. To determine EC50 value, 8 concentrations of anti-CCR8 mAb were tested. Unbound antibodies were washed away with PBS (Invitrogen by Thermofisher Scientific, Illkirch-Graffenstaden, France) supplemented by 2% Fetal Bovine Serum (Invitrogen by Thermofisher Scientific, Illkirch-Graffenstaden, France) and 2 mM EDTA (Invitrogen by Thermofisher Scientific, Illkirch-Graffenstaden, France). Subsequently, cells are centrifuged (5 min at 400 g) and bound antibody is detected with F(ab′)2-Goat anti-Mouse IgG (H+L) Cross-Adsorbed Secondary Antibody, Alexa Fluor 488 (dilution 1/500) (Invitrogen by Thermofisher Scientific, Illkirch-Graffenstaden, France) or with F(ab′)₂-Goat anti-Human IgG Fc Secondary Antibody, PE (Invitrogen by Thermofisher Scientific, Illkirch-Graffenstaden, France) (dilution 1/1000) at 4° C. for 30 min. Detection reagent is washed away and cells are centrifuged (5 min at 400 g) and resuspended in 30 μL PBS. Bound detection antibody is quantified on a MacsQuant16 (Miltenyi, Gladbach, Germany) (B1 or B2 channel, 5000 events per acquisition). During the experiment, the respective isotype mAb controls (mouse IgG1, mouse IgG2a, mouse IgG2b, mouse IgG3 or human IgG1) (Biolegend, Amsterdam, The Netherlands) are included to exclude any unspecific binding events. EC50 values were determined via nonlinear fit “log (agonist) vs.response—Variable slope (four parameters)” function of Graphpad prism. EC50 values were not constantly determined in the same experiments.

| Binder | % positive cells [%] | MFI fold change to isotype ctrl [fold] |
| --- | --- | --- |
| B1 | 56.2 | 4.78 |
| B2 | 76.2 | 8.37 |
| B3 | 34.7 | 2.34 |
| B4 | 81.6 | 9.92 |

target: T1, human CCR8; assay: flow cytometry, inhibition of hCCL1-AF647 (10 nM) binding to hCCR8-CHO cells
Description: The hCCR8 transfected CHO cell line was dispatched at a density of 1.105 per well in a 96-well plate. Cells were incubated for 30 min at 4° C. with or without anti-CCR8 mAb tested at 10 μg/mL then diluted at 1/3. Unbound antibodies were washed away with PBS (Gibco, Villebon-sur-yvette, France) supplemented by 2% Fetal Bovine Serum (Invitrogen by Thermofisher Scientific, Illkirch-Graffenstaden, France) and 2 mM EDTA. […] After washing unbound ligands, CCL1 bound detection is quantified on a MacsQuant16 (Miltenyi, Gladbach, Germany) (R1 channel, 5 000 events per acquisition).
For IC₅₀ determination, a concentration response curve is performed using 8 concentrations of mAb. Curves are fitted and IC₅₀ of CCL1 binding blocking activity is calculated using the sigmoidal dose-response (variable slope) model on GraphPad Prism 9 (GraphPad Software, San Diego, CA, USA).

| Binder | IC50 |
| --- | --- |
| B1 | ~0.6 µg/mL and 4.01 nM |
| B2 | 0.72 µg/mL and 4.82 nM |
| B3 | 6.41 µg/mL and 43 nM |
| B4 | 1.18 µg/mL and 7.92 nM |

— patent US20260132208A1 (DOMAIN THERAPEUTICS, published 2026)
